Results taken from publication PMC8665133.
Where “and” joins values, the source holds several entries; their conditions need not be identical. Identical values can stand only once. Like-named read-outs stand apart in the source and are kept apart here.

What was measured:
[1] = target: T1, Transmembrane domain peptide of AM2 (TM-AM2), wild type (influenza A virus (strain not stated)); assay: native MS
[2] = target: T1, Transmembrane domain peptide of AM2 …; assay: native MS; remark: listed apart in the source

B1: Transmembrane domain peptide of AM2 (TM-AM2), wild type (peptide)
chain: SDPLVVAASIIGILHLILWIL
modifications: not checked
- stoichiometry N [1]: 6
- stoichiometry N [2]: 2 and 4
